Experimental data reported in paper PMC9922279.

Biological target: Trimeric polymerase with PB2 71-73A (PB1 WT, PB2 71-73A, strep-tagged PA)
Details: parent: est. 1.0; read off a plot

In the case of “Trimeric influenza A virus A/WSN/1933 (H1N1) polymerase (PB1 wild type, PB2, HA-tagged PA) (from UniProt P15659) PB2 71-73A”, the ratio to parent is reported as 0.5 n-fold of WT.
